Target: human CD8 on cells (HPBALL cells, TALL1 cells, CD8+ T cells of human whole blood and PBMCs) (human) (UniProt P01732)
Test: flow cytometry of human whole blood, AF647-labeled OKT8 at 20 ng/mL against CD3 APC-Vio770

Chain of human CD8 on cells (HPBALL cells, TALL1 cells, CD8+ T cells of human whole blood and PBMCs) (human) (P01732 22-234 limits assumed): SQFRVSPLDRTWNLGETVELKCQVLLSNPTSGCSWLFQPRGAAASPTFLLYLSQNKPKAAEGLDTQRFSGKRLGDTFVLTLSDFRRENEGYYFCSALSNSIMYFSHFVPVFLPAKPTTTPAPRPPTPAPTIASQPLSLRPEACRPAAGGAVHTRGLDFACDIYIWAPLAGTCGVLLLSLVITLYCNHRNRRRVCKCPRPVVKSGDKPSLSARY

- share of events in Q2 (CD3 positive, mAb/VHH AF647 positive): 19.7%
- share of events in Q3 (CD3 negative, mAb/VHH AF647 positive): 0.73%
B1: OKT8 anti-CD8 IgG labeled with ALEXA FLUOR 647 (antibody, from another filing, V domains shown)
VH: EVQLQQSGAELVKPGASVKLSCTASGFNIKDTYIHFVRQRPEQGLEWIGRIDPANDNTLYASKFQGKATITADTSSNTAYMHLCSLTSGDTAVYYCGRGYGYYVFDHWGQGTTLTVSS
VL: DVQINQSPSFLAASPGETITINCRTSRSISQYLAWYQEKPGKTNKLLIYSGSTLQSGIPSRFSGSGSGTDFTLTISGLEPEDFAMYYCQQHNENPLTFGAGTKLELK

Source: patent US20230192853A1
